In this assay the target is T1, Recombinant S. cerevisiae PCNA with an His-Tag (S. cerevisiae, UniProt P15873 1-258).
T1 construct: PCNA (proliferating cell nuclear antigen, gene POL30), S. cerevisiae; also called purified PCNA; source: E. coli (pET28c), purified on a HisTrap column
T1 sequence (looked up): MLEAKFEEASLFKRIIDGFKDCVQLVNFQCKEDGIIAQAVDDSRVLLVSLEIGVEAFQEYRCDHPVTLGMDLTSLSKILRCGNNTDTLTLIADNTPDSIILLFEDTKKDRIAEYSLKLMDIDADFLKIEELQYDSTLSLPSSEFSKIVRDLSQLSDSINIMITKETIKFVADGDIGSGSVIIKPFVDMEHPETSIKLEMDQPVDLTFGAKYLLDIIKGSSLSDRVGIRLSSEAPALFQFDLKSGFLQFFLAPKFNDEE
Briefly: ITC; VP-ITC; 20–25 μM PCNA in the cell, 270 μM peptide in the syringe; 30°C; buffer T (20 mM Tris pH 7.5, 50 mM NaCl, 20 mM β-mercaptoethanol); single set of independent binding sites model. The conditions noted are these: both partners purified. Background: In ITC the heat of successive injections is recorded.

Where only a bound is given, the exact number is not on record here.

Broadly, the Kd is the concentration at which binding is half-saturated.

B1: pPol32 333–350 (peptide)
peptide: KRLKKQGTLESFFKRKAK
notes: Pol32 (C subunit of DNA polymerase delta), S. cerevisiae, residues 333-350 (the C-terminal end; K is the last residue of Pol32) with the PIP motif QxxLxxFF; also called Pol32 peptide; Pol32 PIP motif peptide; source: synthetic peptide, bought: Genecust, 95% purity
Take B1: the Kd was determined as 460 nM and the dH is -4.45 kcal/mol.

B2: pPol31 317–337 (peptide)
peptide: KSLFDKSLESYFNGSNKEILN
notes: Pol31 (B subunit of DNA polymerase delta), S. cerevisiae, residues 317-337 with the proposed motif LxxYF; also called Pol31 peptide; non-canonical Pol31 PIP motif peptide; source: synthetic peptide, bought: Genecust, 95% purity
As for B2, the dissociation constant Kd is more than 50000 nM.

B3: pMsh6 22–43 (peptide)
peptide: QKKMKQSSLLSFFSKQVPSGTP
notes: Msh6, S. cerevisiae, residues 22-43 with the canonical PIP motif; also called Msh6 peptide; canonical PIP motif of Msh6; source: synthetic peptide, bought: Genecust, 95% purity
In the case of B3, the Kd was 310 nM and the dH is -6.4 kcal/mol.

The values above are taken from paper PMC5760103, “The translesion DNA polymerases Pol ζ and Rev1 are activated independently of PCNA ubiquitination upon UV radiation in mutants of DNA polymerase δ” (PLoS Genetics, 2017).
